Test results published in PMC12107181 (2025).

B1: AD-TCP3 [Arabidopsis] / BD-COP1 [Arabidopsis] (parent complex)
chain 1: MAPDNDHFLDSPSPPLLEMRHHQSATENGGGCGEIVEVQGGHIVRSTGRKDRHSKVCTAKGPRDRRVRLSAPTAIQFYDVQDRLGFDRPSKAVDWLITKAKSAIDDLAQLPPWNPADTLRQHAAAAANAKPRKTKTLISPPPPQPEETEHHRIGEEEDNESSFLPASMDSDSIADTIKSFFPVASTQQSYHHQPPSRGNTQNQDLLRLSLQSFQNGPPFPNQTEPALFSGQSNNQLAFDSSTASWEQSHQSPEFGKIQRLVSWNNVGAAESAGSTGGFVFASPSSLHPVYSQSQLLSQRGPLQSINTPMIRAWFDPHHHHHHHQQSMTTDDLHHHHPYHIPPGIHQSAIPGIAFASSGEFSGFRIPARFQGEQEEHGGDNKPSSASSDSRH
chain 2: MEEISTDPVVPAVKPDPRTSSVGEGANRHENDDGGSGGSEIGAPDLDKDLLCPICMQIIKDAFLTACGHSFCYMCIITHLRNKSDCPCCSQHLTNNQLYPNFLLDKLLKKTSARHVSKTASPLDQFREALQRGCDVSIKEVDNLLTLLAERKRKMEQEEAERNMQILLDFLHCLRKQKVDELNEVQTDLQYIKEDINAVERHRIDLYRARDRYSVKLRMLGDDPSTRNAWPHEKNQIGFNSNSLSIRGGNFVGNYQNKKVEGKAQGSSHGLPKKDALSGSDSQSLNQSTVSMARKKRIHAQFNDLQECYLQKRRQLADQPNSKQENDKSVVRREGYSNGLADFQSVLTTFTRYSRLRVIAEIRHGDIFHSANIVSSIEFDRDDELFATAGVSRCIKVFDFSSVVNEPADMQCPIVEMSTRSKLSCLSWNKHEKNHIASSDYEGIVTVWDVTTRQSLMEYEEHEKRAWSVDFSRTEPSMLVSGSDDCKVKVWCTRQEASVINIDMKANICCVKYNPGSSNYIAVGSADHHIHYYDLRNISQPLHVFSGHKKAVSYVKFLSNNELASASTDSTLRLWDVKDNLPVRTFRGHTNEKNFVGLTVNSEYLACGSETNEVYVYHKEITRPVTSHRFGSPDMDDAEEEAGSYFISAVCWKSDSPTMLTANSQGTIKVLVLAA
B2: AD-TCP10 [Arabidopsis] / BD-COP1 [Arabidopsis] (parent complex)
chain 1: MGLKGYSVGEGGGEIVEVQGGHIIRATGRKDRHSKVFTSKGPRDRRVRLSAHTAIQFYDVQDRLGYDRPSKAVDWLIKKAKTAIDKLELGETTTTTTRQEPVNTKPESPTLVFQRENNDQTQFVAANLDPEDAMKTFFPATTTTNGGGGTNINFQNYPHQDDNNMVSRTTTPPPNLSQDLGLSLHPFQGNNNTVVVPETNNFTTTHFDTFGRISGWNHHDLTMTSSSSSEHQQQEQEERSNGGFMVNHHPHHHHHQPSMMTLLNSQQQQVFLGGQQQQQQRGTLQSSLFPHSFRSWDHHQTTSDHHHHQNQASSMFASSSQYGSHGMMMMQGLSFPNTTRLLHGEEATQPNSSSSPPNSHL
chain 2: B1 chain 2
B3: AD-PAP2 [Arabidopsis] / BD-COP1 [Arabidopsis] (parent complex)
chain 1: MEGSSKGLRKGAWTAEEDSLLRLCIDKYGEGKWHQVPLRAGLNRCRKSCRLRWLNYLKPSIKRGRLSNDEVDLLLRLHKLLGNRWSLIAGRLPGRTANDVKNYWNTHLSKKHESSCCKSKMKKKNIISPPTTPVQKIGVFKPRPRSFSVNNGCSHLNGLPEVDLIPSCLGLKKNNVCENSITCNKDDEKDDFVNNLMNGDNMWLENLLGENQEADAIVPEATTAEHGATLAFDVEQLWSLFDGETVELD
chain 2: B1 chain 2

Variants of: B1
Assay: Y2H assay (β-galactosidase activity); parent: 2.7; read off a plot

| response | Variant |
| --- | --- |
| ~0.86 Miller units | chain 2 F595A |

Variants of: B1
Assay: Y2H assay (β-galactosidase activity); parent: 3; read off a plot

| response | Variant |
| --- | --- |
| ~0.86 Miller units | chain 2 W467A |

Variants of: B2
Assay: Y2H assay (β-galactosidase activity); parent: 0.92; read off a plot

| response | Variant |
| --- | --- |
| ~1.1 Miller units | chain 1 V196A, chain 1 P197A |

Variants of: B3
Assay: Y2H assay (β-galactosidase activity); parent: 21; read off a plot

| response | Variant |
| --- | --- |
| ~3.6 Miller units | chain 2 F595A |

Variants of: B3
Assay: Y2H assay (β-galactosidase activity); parent: 15; read off a plot

| response | Variant |
| --- | --- |
| ~2.1 Miller units | chain 2 W467A |
